Test in all cases: peptide SPOT array, c-Myc-tagged receptor at 1 uM or 100 nM, anti-c-Myc-Cy3
The target in assay [1] is T1, Mcl-1, Q07820.
T1 chain: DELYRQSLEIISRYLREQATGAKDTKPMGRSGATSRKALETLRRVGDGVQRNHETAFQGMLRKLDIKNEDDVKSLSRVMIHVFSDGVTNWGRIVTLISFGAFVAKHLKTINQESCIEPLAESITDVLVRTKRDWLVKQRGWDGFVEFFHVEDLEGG

Assay [2] has as its target T2, Bfl-1, Q16548.
T2 chain: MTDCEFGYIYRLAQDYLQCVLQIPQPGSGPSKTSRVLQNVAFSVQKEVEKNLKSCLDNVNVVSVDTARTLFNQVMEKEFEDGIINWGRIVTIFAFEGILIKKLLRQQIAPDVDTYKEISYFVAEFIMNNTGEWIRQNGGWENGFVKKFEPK

In assay [3] the target is Bcl-xL, Q07817.
Bcl-xL, Q07817, sequence (Q07817 1-209): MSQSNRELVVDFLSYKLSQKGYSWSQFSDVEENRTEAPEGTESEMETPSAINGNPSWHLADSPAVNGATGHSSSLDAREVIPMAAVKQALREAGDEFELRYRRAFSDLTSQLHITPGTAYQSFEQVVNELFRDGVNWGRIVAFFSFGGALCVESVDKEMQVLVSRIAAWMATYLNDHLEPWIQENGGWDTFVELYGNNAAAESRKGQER

B1: NCAPH2 (peptide)
chain: QEQEQHVPFDIHTYGDQLVSRFPQLN
B1: the SPOT signal as a fraction of Bim BH3's signal on the same receptor and array in assay [1] came out at 0.04; in assay [2] it was 0.05; in assay [3] it was 0.06.

B2: DZIP3 (peptide)
chain: NGGLLEFHKSLQEILDKNDHWFDIDP
With B2, the SPOT signal as a fraction of Bim BH3's signal on the same receptor and array was 0.06 in assay [1], 0.05 in assay [2] and 0.12 in assay [3].

B3: STK11IP (peptide)
chain: DSLLWKLAGLLRESLDVVLSGCSTLS
On to B3, for which the SPOT signal as a fraction of Bim BH3's signal on the same receptor and array in assay [1] worked out at 0.05; in assay [2] it was 0.04; in assay [3], 0.06.

B4: MYBBP1A (peptide)
chain: LALLAQPSHLDRQVARSVFGHICSHL
As to B4, the SPOT signal as a fraction of Bim BH3's signal on the same receptor and array amounted to 0.63 in assay [1], 0.38 in assay [2] and 0.68 in assay [3].

B5: KIF19 (peptide)
chain: KLALEQRCRELRARGRRLEETLPRRI
For the molecule B5, the SPOT signal as a fraction of Bim BH3's signal on the same receptor and array in assay [1] is 0.58; in assay [2] it was 0.62; in assay [3], 1.22.

B6: CCDC68 (peptide)
chain: QASREAGAAADRNVAQRLFENYQTQS
B6: the SPOT signal as a fraction of Bim BH3's signal on the same receptor and array in assay [1] was determined as 0.04; in assay [2], 0.04; in assay [3], 0.05.

B7: BAK1 (peptide)
chain: SSTMGQVGRQLAIILDDINRRYDSEF
For B7, the SPOT signal as a fraction of Bim BH3's signal on the same receptor and array in assay [1] was 0.01; in assay [2], 0.01; in assay [3] it was 0.02.

B8: BBS10 (peptide)
chain: RMIVDCVSSHLKKTLDGAKTFIIFLC
As for B8, the SPOT signal as a fraction of Bim BH3's signal on the same receptor and array in assay [1] was 0.21; in assay [2] it was 0.24; in assay [3], 0.61.

B9: ROS1 (peptide)
chain: FGEYSGISENIILVGDDFWIPETSFI
Take B9: the values for the SPOT signal as a fraction of Bim BH3's signal on the same receptor and array in assay [1], in assay [2] and in assay [3] were 0.04, 0.04 and 0.07, respectively.

B10: MCF2L (peptide)
chain: VDSIRPKCQEDRHLCDQFSAEIARRR
As for B10, the SPOT signal as a fraction of Bim BH3's signal on the same receptor and array in assay [1] is 0.08; in assay [2], 0.1; in assay [3], 0.25.

B11: IGF2R (peptide)
chain: YFKLFRASGDMRTNLDNYLYEIQLSS
In the case of B11, the SPOT signal as a fraction of Bim BH3's signal on the same receptor and array stood at 0.39 in assay [1], 0.37 in assay [2] and 0.28 in assay [3].

B12: PCYT2 (peptide)
chain: HHSSQEMSSEYREYLDSFGKCPGGRN
For B12, the SPOT signal as a fraction of Bim BH3's signal on the same receptor and array amounted to 0.04 in assay [1], 0.03 in assay [2] and 0.05 in assay [3].

B13: FADD (peptide)
chain: APGEEDLCAAFNVICDNVGKDWRRLA
As to B13, the SPOT signal as a fraction of Bim BH3's signal on the same receptor and array in assay [1] was determined as 0.16; in assay [2], 0.04; in assay [3] it was 0.08.

B14: CRB1 (peptide)
chain: TGSLCEIATTDSFEGDGFLWVKSGSV
In the case of B14, the SPOT signal as a fraction of Bim BH3's signal on the same receptor and array in assay [1] was found to be 0.04; in assay [2] it was 0.03; in assay [3], 0.06.

B15: CCDC57 (peptide)
chain: QAGPVSSGLALRKLGDRVQLLNLLVT
In the case of B15, the SPOT signal as a fraction of Bim BH3's signal on the same receptor and array in assay [1] worked out at 0.57; in assay [2] it was 0.39; in assay [3], 1.06.

B16: KIAA0664 (peptide)
chain: AEVMRQRGINMRYLLKVLELVLRSPA
Turning to B16, the SPOT signal as a fraction of Bim BH3's signal on the same receptor and array stood at 0.71 in assay [1], 0.49 in assay [2] and 0.74 in assay [3].

B17: DNAH10 (peptide)
chain: SMRRNAMGVGLVFELDLFTTRHISHW
Regarding B17, the figures for the SPOT signal as a fraction of Bim BH3's signal on the same receptor and array in assay [1], in assay [2] and in assay [3] were 0.18, 0.17 and 0.21, respectively.

B18: HUWE1 (peptide)
chain: GVMTQEVGQLLQDMLDDVYQQYRSLT
For the molecule B18, the figures for the SPOT signal as a fraction of Bim BH3's signal on the same receptor and array in assay [1], in assay [2] and in assay [3] were 0.02, 0.01 and 0.03, respectively.

B19: LRP1 (peptide)
chain: MRSQLGKATALAIMLDKLWWADQVSE
With B19, the results for the SPOT signal as a fraction of Bim BH3's signal on the same receptor and array in assay [1], in assay [2] and in assay [3] were 0.18, 0.09 and 0.12, respectively.

B20: CYBB (peptide)
chain: APEEDFFSIHIRIVLDWTEGLFNACG
As for B20, the SPOT signal as a fraction of Bim BH3's signal on the same receptor and array is 0.04 in assay [1], 0.04 in assay [2] and 0.06 in assay [3].

B21: PROK2 (peptide)
chain: WVKSIRICTPMGKLLDSCHPLTRKVP
B21: the SPOT signal as a fraction of Bim BH3's signal on the same receptor and array in assay [1] was found to be 0.56; in assay [2] it was 0.53; in assay [3], 1.23.

B22: UBA6 (peptide)
chain: ADVHGIWSRLFCDFGDEFEVLDTTGE
As for B22, the SPOT signal as a fraction of Bim BH3's signal on the same receptor and array in assay [1] amounted to 0.04; in assay [2], 0.04; in assay [3], 0.07.

B23: TMEM214 (peptide)
chain: SFLSAHCASHDAWFGDSLTSLSQRLQ
For the molecule B23, the SPOT signal as a fraction of Bim BH3's signal on the same receptor and array in assay [1] came out at 0.05; in assay [2] it was 0.06; in assay [3], 0.07.

B24: SGCA (peptide)
chain: LFWTPLLVVLDAGLGDTEAQQTTLHP
As for B24, the SPOT signal as a fraction of Bim BH3's signal on the same receptor and array came out at 0.04 in assay [1], 0.05 in assay [2] and 0.06 in assay [3].

B25: PURB (peptide)
chain: FKAWGKFGGAFCRYLDEMKEIQERQR
On to B25, for which the SPOT signal as a fraction of Bim BH3's signal on the same receptor and array in assay [1] is 1.07; in assay [2], 1.19; in assay [3], 1.19.

B26: MKI67 (peptide)
chain: SGLPGLSSVDINNFGDSINESEGIPL
On to B26, for which the results for the SPOT signal as a fraction of Bim BH3's signal on the same receptor and array in assay [1], in assay [2] and in assay [3] were 0.04, 0.04 and 0.08, respectively.

B27: P2RX7 (peptide)
chain: QCPIFRLGDIFRETGDNFSDVAIQGG
On to B27, for which the SPOT signal as a fraction of Bim BH3's signal on the same receptor and array amounted to 0.05 in assay [1], 0.04 in assay [2] and 0.07 in assay [3].

B28: DSN1 (peptide)
chain: RAKASSLSEELKHFADGLETDGTLQK
For the molecule B28, the SPOT signal as a fraction of Bim BH3's signal on the same receptor and array in assay [1] turned out to be 0.05; in assay [2], 0.04; in assay [3], 0.07.

Values taken from article PMC4072508, “Genome-Wide Prediction and Validation of Peptides That Bind Human Prosurvival Bcl-2 Proteins” (PLoS Computational Biology, 2014).
